Publication PMC12527946 (2025)

B1: VLDLR(28–797)Δ(751–779)-C-tag (VLDLR ectodomain) (receptor)
chain: not shown
B2: Clu deletion mutant CC1 (natural protein)
chain 1: DQTVSDNELQEMSNQGSKYVNKEIQNAVNGVKQIKTLIEKTNEERKTLLSNLEEAKKKKEDALNETRESETKLKELPGVCNETMMALWEECKPCLKQTCMKFYARVCRSGSGLVGRQLEEFLNQSSPFYFWMNGDRIDSLLENDRQQTHMLDVMQDHFSRASSIIDELFQDRFFTREPQDTYHYLPFSLPHRRPHFFFPKSRIVR
chain 2: SLMPFSPYEPLNFHAMMDIHFHSPAFQHPPTEFIREGDDDRTVCREIRHNSTGCLRMKDQCDKCREILSVDCSTNNPSQAKLRRELDESLQVAERLTRKYNELLKSYQWKMLNTSSLLEQLNEQFNWVSRLANLTQGEDQYYLRVTTVASHTSDSDVPSGVTEVVVKLFDSDPITVTVPVEVSRKNPKFMETVAEKALQEYRKKHREE
modifications: deletion taken as helix α7 = 244-257 as printed; exact CC1 limits only in Fig. 3a; five interchain disulfides; six N-glycans Secreted from HEK293E, glycosylated, Ca2+-bound LDLR repeats, disulfides; C-terminal C-tag left out. Deletion 751-779 taken as printed, in the numbering of the long isoform

Key:
Test in all cases: ELISA
[1] = target: Clu mutant DD3 (human, UniProt P10909 23-227; P10909 228-449)
[2] = target: Clu mutant DD2 (human, UniProt P10909 23-227; P10909 228-449)
[3] = target: Clu mutant DD1 (human, UniProt P10909 23-227; P10909 228-449)
[4] = target: Clu mutant CC3 (human, UniProt P10909 23-227; P10909 228-449)
[5] = target: Clu mutant TL3 (human, UniProt P10909 23-227; P10909 228-449)
[6] = target: TL4
[7] = target: VLDLR(28–797)Δ(751–779)-C-tag (VLDLR ectodomain) (human, UniProt P98155-2 28-797, Δ(751–779))

Binder	Kd [1]	Kd [2]	Kd [3]	Kd [4]	Kd [5]	Kd [6]	Kd [7]
B1	1180 nM	1190 nM	137 nM	109 nM	989 nM	256 nM	
B2							662 nM
